In patent publication US20140274782A1, “AFFINITY REAGENTS AND METHODS FOR DETECTION, PURIFICATION, AND PROTEOMIC ANALYSIS OF METHYLATED PROTEINS” (The Board of Trustees of the Leland Stanford Junior …, priority 2013, published 2014):

T1: G9a and GLP (Homo sapiens, UniProt Q96KQ7+Q9H9B1)
T1 sequence (Q96KQ7 2-1210 limits assumed): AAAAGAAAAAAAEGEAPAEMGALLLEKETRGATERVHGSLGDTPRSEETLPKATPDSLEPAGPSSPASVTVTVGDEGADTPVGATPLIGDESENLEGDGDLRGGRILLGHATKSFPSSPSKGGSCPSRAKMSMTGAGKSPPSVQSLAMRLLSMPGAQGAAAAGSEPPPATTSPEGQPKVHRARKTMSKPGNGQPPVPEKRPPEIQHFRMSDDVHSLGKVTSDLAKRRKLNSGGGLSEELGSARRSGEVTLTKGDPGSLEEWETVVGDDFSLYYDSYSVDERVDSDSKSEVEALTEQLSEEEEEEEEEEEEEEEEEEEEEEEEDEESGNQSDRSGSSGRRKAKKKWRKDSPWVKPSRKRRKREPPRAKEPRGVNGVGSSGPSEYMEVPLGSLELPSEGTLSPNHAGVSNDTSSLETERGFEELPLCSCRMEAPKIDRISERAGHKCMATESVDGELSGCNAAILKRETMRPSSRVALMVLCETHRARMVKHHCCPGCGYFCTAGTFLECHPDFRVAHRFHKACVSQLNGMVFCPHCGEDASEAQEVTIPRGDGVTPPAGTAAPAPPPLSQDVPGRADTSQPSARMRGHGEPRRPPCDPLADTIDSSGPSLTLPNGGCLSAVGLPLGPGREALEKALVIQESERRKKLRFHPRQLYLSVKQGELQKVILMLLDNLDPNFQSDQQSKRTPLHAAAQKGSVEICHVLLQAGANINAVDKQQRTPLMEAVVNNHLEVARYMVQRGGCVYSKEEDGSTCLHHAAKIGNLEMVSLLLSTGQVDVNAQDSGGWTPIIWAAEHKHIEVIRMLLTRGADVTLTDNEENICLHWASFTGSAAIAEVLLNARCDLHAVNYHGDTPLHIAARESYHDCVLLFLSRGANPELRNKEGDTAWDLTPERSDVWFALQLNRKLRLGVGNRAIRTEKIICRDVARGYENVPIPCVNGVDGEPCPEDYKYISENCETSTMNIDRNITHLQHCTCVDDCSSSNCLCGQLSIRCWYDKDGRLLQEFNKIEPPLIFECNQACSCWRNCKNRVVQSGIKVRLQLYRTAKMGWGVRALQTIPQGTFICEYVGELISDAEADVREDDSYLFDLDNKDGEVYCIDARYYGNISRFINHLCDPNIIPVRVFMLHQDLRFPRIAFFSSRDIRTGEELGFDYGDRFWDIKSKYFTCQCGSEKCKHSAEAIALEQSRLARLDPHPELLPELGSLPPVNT
T1 sequence (Q9H9B1 2-1298 limits assumed): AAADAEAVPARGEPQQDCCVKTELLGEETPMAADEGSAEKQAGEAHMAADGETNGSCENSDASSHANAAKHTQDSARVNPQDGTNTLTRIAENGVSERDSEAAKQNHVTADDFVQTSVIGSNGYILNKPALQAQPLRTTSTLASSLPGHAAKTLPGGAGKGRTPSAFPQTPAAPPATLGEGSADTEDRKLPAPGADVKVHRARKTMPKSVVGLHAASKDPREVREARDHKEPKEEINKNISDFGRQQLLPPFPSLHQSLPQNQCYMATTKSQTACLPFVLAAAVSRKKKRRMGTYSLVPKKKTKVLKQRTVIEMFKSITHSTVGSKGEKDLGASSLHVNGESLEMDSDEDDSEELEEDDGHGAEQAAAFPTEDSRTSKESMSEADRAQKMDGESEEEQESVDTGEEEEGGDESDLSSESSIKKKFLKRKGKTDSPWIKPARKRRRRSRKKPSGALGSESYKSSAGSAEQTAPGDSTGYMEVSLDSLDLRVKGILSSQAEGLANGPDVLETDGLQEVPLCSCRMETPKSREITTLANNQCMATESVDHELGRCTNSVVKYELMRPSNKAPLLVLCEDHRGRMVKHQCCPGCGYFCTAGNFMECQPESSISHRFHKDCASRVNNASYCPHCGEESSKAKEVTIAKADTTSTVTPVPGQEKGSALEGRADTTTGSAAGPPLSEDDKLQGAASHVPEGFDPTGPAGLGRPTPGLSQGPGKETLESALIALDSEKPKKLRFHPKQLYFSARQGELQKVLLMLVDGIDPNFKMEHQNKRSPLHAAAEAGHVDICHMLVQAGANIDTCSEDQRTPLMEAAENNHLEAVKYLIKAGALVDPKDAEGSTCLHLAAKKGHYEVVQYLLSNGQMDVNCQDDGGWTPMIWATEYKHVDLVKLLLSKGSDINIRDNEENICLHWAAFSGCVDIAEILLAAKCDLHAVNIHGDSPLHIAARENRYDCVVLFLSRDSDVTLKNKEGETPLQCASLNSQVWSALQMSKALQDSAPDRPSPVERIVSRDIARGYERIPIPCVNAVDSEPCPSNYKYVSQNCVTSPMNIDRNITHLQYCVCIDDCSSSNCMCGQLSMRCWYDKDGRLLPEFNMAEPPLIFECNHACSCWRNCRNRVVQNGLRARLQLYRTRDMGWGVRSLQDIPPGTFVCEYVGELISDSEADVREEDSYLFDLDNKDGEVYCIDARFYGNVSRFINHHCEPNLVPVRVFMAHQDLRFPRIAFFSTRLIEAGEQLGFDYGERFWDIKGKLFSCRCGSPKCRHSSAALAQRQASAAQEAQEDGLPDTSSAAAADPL


What was measured:
G9a and GLP = target: T1, G9a and GLP; assay: Triple SILAC pull-down after UNC0638 treatment of 293T cells, DMSO/UNC0638 ratio of protein captured by 3×MBT; type: cell-based; design: cells were treated for 24 hours with UNC0638 at 2.5 μM or DMSO vehicle control; endogenous in cells; host or cells: HEK 293T; conditions: for Relative to UNC0638 UNC Heavy: UNC0638 in heavy SILAC media; for Relative to UNC0638 UNC Light: UNC0638 in light SILAC media; for Relative to UNC0638 Average: average of UNC Light and UNC Heavy experiments;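 for all read-outs here: mass spectrometry (Q-Exactive) SILAC quantitation, DMSO/UNC0638 ratio computed after subtracting 3×MBTD355N mutant pull-down background, only proteins with at least twofold 3×MBT over mutant signal considered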
3×MBT domain of L3MBTL1 = assay: Triple SILAC pull-down, 3xMBT/3xMBTD355N ratio (cytoplasmic, nuclear and chromatin fractions of 293T cells); type: binding, human; conditions: for 3xMBT/D355N UNC Heavy: experiment with UNC0638 in heavy SILAC media; for 3xMBT/D355N UNC Light: experiment with UNC0638 in light SILAC media;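 for all read-outs here: proteins quantified with MaxQuant, requiring at least two unique peptides and quantification in both label directions, normalized to the mean of proteins from a digested loading control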
[1] = SILAC ratio DMSO/UNC0638 of protein pulled down with 3xMBT
[2] = SILAC ratio, pull-down 3xMBT vs 3xMBTD355N
[3] = SILAC ratio DMSO relative to UNC0638, pull-down with 3xMBT, all values in log base 2
[4] = SILAC ratio 3xMBT vs 3xMBTD355N pull-down, 293T cells, all values in log base 2

Molecule | Relative to UNC0638 UNC Heavy (G9a and GLP; [1]) | Relative to UNC0638 UNC Light (G9a and GLP; [1]) | Relative to UNC0638 Average (G9a and GLP) | Candidate G9a/GLP target (G9a and GLP; reduced association with 3xMBT after UNC0638 treatment) | 3xMBT/D355N UNC Heavy (3×MBT domain of L3MBTL1; [2]) | 3xMBT/D355N UNC Light (3×MBT domain of L3MBTL1; [2]) | Relative to UNC0638 UNC Heavy (G9a and GLP; [3]) | Relative to UNC0638 UNC Light (G9a and GLP; [3]) | Relative to UNC0638 Average (G9a and GLP; all values in log base 2) | 3xMBT/D355N UNC Heavy (3×MBT domain of L3MBTL1; [4]) | 3xMBT/D355N UNC Light (3×MBT domain of L3MBTL1; [4])
CYFIP1 (protein, UniProt Q7L576 1-1253, looked up) Cytoplasmic FMR1-interacting …: MAAQVTLEDALSNVDLLEELPLPDQQPCIEPPPSSLLYQPNFNTNFEDRNAFVTGIARYIEQATVHSSMNEMLEEGQEYAVMLYTWRSCSRAIPQVKCNEQPNRVEIYEKTVEVLEPEVTKLMNFMYFQRNAIERFCGEVRRLCHAERRKDFVSEAYLITLGKFINMFAVLDELKNMKCSVKNDHSAYKRAAQFLRKMADPQSIQESQNLSMFLANHNKITQSLQQQLEVISGYEELLADIVNLCVDYYENRMYLTPSEKHMLLKVMGFGLYLMDGSVSNIYKLDAKKRINLSKIDKYFKQLQVVPLFGDMQIELARYIKTSAHYEENKSRWTCTSSGSSPQYNICEQMIQIREDHMRFISELARYSNSEVVTGSGRQEAQKTDAEYRKLFDLALQGLQLLSQWSAHVMEVYSWKLVHPTDKYSNKDCPDSAEEYERATRYNYTSEEKFALVEVIAMIKGLQVLMGRMESVFNHAIRHTVYAALQDFSQVTLREPLRQAIKKKKNVIQSVLQAIRKTVCDWETGHEPFNDPALRGEKDPKSGFDIKVPRRAVGPSSTQLYMVRTMLESLIADKSGSKKTLRSSLEGPTILDIEKFHRESFFYTHLINFSETLQQCCDLSQLWFREFFLELTMGRRIQFPIEMSMPWILTDHILETKEASMMEYVLYSLDLYNDSAHYALTRFNKQFLYDEIEAEVNLCFDQFVYKLADQIFAYYKVMAGSLLLDKRLRSECKNQGATIHLPPSNRYETLLKQRHVQLLGRSIDLNRLITQRVSAAMYKSLELAIGRFESEDLTSIVELDGLLEINRMTHKLLSRYLTLDGFDAMFREANHNVSAPYGRITLHVFWELNYDFLPNYCYNGSTNRFVRTVLPFSQEFQRDKQPNAQPQYLHGSKALNLAYSSIYGSYRNFVGPPHFQVICRLLGYQGIAVVMEELLKVVKSLLQGTILQYVKTLMEVMPKICRLPRHEYGSPGILEFFHHQLKDIVEYAELKTVCFQNLREVGNAILFCLLIEQSLSLEEVCDLLHAAPFQNILPRVHVKEGERLDAKMKRLESKYAPLHLVPLIERLGTPQQIAIAREGDLLTKERLCCGLSMFEVILTRIRSFLDDPIWRGPLPSNGVMHVDECVEFHRLWSAMQFVYCIPVGTHEFTVEQCFGDGLHWAGCMIIVLLGQQRRFAVLDFCYHLLKVQKHDGKDEIIKNVPLKKMVERIRKFQILNDEIITILDKYLKSGDGEGTPVEHVRCFQPPIHQSLASS | 0.55 log base 2 | 0.36 log base 2 | 0.46 log base 2 | ✓ | 1.93 log base 2 | 1.58 log base 2 |  |  |  |  | 
CKAP2 (protein, UniProt Q8WWK9 1-683, looked up) Cytoskeleton-associated …: MSTPAVPQDLQLPPSQRAQSAFKEQRRQKLKEHLLRRKTLFAYKQENEMLSSSRDQRVVTSEDQVQEGTKVLKLKTKMADKENMKRPAESKNNTVVGKHCIPLKPSNELTNSTVVIDTHKPKDSNQTPHLLLTEDDPQSQHMTLSQAFHLKNNSKKKQMTTEKQKQDANMPKKPVLGSYRGQIVQSKINSFRKPLQVKDESSAATKKLSATIPKATKPQPVNTSSVTVKSNRSSNMTATTKFVSTTSQNTQLVRPPIRSHHSNTRDTVKQGISRTSANVTIRKGPHEKELLQSKTALSSVKTSSSQGIIRNKTLSRSIASEVIARPASLSNDKLMEKSEPVDQRRHTAGKAIVDSRSAQPKETSEERKARLSEWKAGKGRVLKRPPNSVVTQHEPAGQNEKPVGSFWTTMAEEDEQRLFTEKVNNTFSECLNLINEGCPKEDILVTLNDLIKNIPDAKKLVKYWICLALIEPITSPIENIIAIYEKAILAGAQPIEEMRHTIVDILTMKSQEKANLGENMEKSCASKEEVKEVSIEDTGVDVDPEKLEMESKLHRNLLFQDCEKEQDNKTKDPTHDVKTPNTETRTSCLIKYNVSTTPYLQSVKKKVQFDGTNSAFKELKFLTPVRRSRRLQEKTSKLPDMLKDHYPCVSSLEQLTELGRETDAFVCRPNAALCRVYYEADTT |  |  |  |  |  |  | −0.12 log base 2 | 0.05 log base 2 | −0.03 log base 2 | −1.81 log base 2 | −1.33 log base 2
NOSIP (protein, UniProt Q9Y314 1-301, looked up) Nitric oxide …: MTRHGKNCTAGAVYTYHEKKKDTAASGYGTQNIRLSRDAVKDFDCCCLSLQPCHDPVVTPDGYLYEREAILEYILHQKKEIARQMKAYEKQRGTRREEQKELQRAASQDHVRGFLEKESAIVSRPLNPFTAKALSGTSPDDVQPGPSVGPPSKDKDKVLPSFWIPSLTPEAKATKLEKPSRTVTCPMSGKPLRMSDLTPVHFTPLDSSVDRVGLITRSERYVCAVTRDSLSNATPCAVLRPSGAVVTLECVEKLIRKDMVDPVTGDKLTDRDIIVLQRGGTGFAGSGVKLQAEKSRPVMQA |  |  |  |  |  |  | 0.03 log base 2 | −0.11 log base 2 | −0.04 log base 2 | 1.54 log base 2 | 2.28 log base 2
